Results as given in US20230192860A1 (published 2023).
Substitutions are numbered along the chain they refer to. Blank lines part the entries; values can stand above or below the binder they belong to.

Columns and labels:
[1] = target: T1, monovalent hVISTA-ECD (amino acids 32-193 of SEQ ID NO: 1 with a 7xHis tail) (UniProt Q9H7M9 33-193); assay: SPR; pH 6.0
[2] = target: T1, monovalent hVISTA-ECD (amino acids …); assay: SPR; pH 6.7
[3] = target: T1, monovalent hVISTA-ECD (amino acids …); assay: SPR; pH 7.4
[4] = target: T1, monovalent hVISTA-ECD (amino acids …); assay: SPR; pH 6.0; remark: listed apart in the source
[5] = target: T1, monovalent hVISTA-ECD (amino acids …); assay: SPR; pH 6.7; remark: listed apart in the source
[6] = target: T1, monovalent hVISTA-ECD (amino acids …); assay: SPR; pH 7.4; remark: listed apart in the source

T1 sequence (Q9H7M9 other isoform, or with tags, fused parts or gaps): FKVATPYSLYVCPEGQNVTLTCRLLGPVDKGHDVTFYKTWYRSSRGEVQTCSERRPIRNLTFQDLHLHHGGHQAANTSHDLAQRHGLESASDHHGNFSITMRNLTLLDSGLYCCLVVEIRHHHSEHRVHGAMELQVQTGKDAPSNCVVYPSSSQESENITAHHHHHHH

B2: P1-068761_E55A_E100fF (antibody, V domains shown)
VH: EVQLVESGGGLVQPGKSLRLSCAASGFTLEDEAMHWVRQAPGKGLEWVSGINWNSAEIGYADSVKGRFTISRDNAKNSLYLQMNSLRTEDTALYYCAKVPGYSHGWIDAFDVWGQGTMVTVSS
VL: not shown
Kd [4]: 0.26 nM
Kd [5]: 1.5 nM
Kd [6]: 14 nM

B4: P1-068767_D52N_D102V (antibody, V domains shown)
VH: B2 VH with E32Y, A56E, E57N, H104G, F110E
VL: not shown
Kd [1]: 0.88 nM
Kd [2]: 7.5 nM
Kd [3]: 87 nM

B5: P1-068761_E30D_E32Y (antibody, V domains shown)
VH: B2 VH with E30D, E32Y, A56E, F110E
VL: not shown
Kd [4]: 0.24 nM
Kd [5]: 2 nM
Kd [6]: 21 nM

B8: P1-068761_E32Y_E56N (antibody, V domains shown)
VH: B2 VH with E32Y, A56E, E57N, F110E
VL: not shown
Kd [4]: 1.2 nM
Kd [5]: 5.1 nM
Kd [6]: 42 nM

B9: P1-061029.IgG1.3 (antibody, V domains shown)
VH: B2 VH with E30D, E32Y, E57N, H104G
VL: not shown
Kd [5]: 11 nM
Kd [6]: 32 nM
Kd [2]: 11 nM
Kd [3]: 32 nM

Further lines, results first:

Kd [1]: 2.7 nM
Kd [2]: 11 nM
Kd [3]: 41 nM
B1: P1-068767_E100fF_D102V (antibody, V domains shown)
VH: B2 VH with E32Y, N52D, A56E, E57N, H104G
VL: not shown

Kd [1]: 1.9 nM
Kd [2]: 15 nM
Kd [3]: 280 nM
B3: P1-068767_E55A_D102V (antibody, V domains shown)
VH: B2 VH with E32Y, N52D, E57N, H104G, F110E
VL: not shown

Kd [1]: 2.1 nM
Kd [2]: 17 nM
Kd [3]: 220 nM
B6: P1-068767_E30D_D102V (antibody, V domains shown)
VH: B2 VH with E30D, E32Y, N52D, A56E, E57N, H104G, F110E
VL: not shown

Kd [1]: 1.3 nM
Kd [2]: 14 nM
Kd [3]: 170 nM
B7: P1-068767_D102V (antibody, V domains shown)
VH: B2 VH with E32Y, N52D, A56E, E57N, H104G, F110E
VL: not shown
